Measured values published in patent US20160340704A1, “METHOD OF MAKING A BENZYLISOQUINOLINE ALKALOID (BIA) METABOLITE, ENZYMES THEREFORE” (VALORBEC SOCIÉTÉ EN COMMANDITE, priority 2014, published 2016).

B1: EX101: CYP719 from Stylophorum diphyllum, SEQ ID NO: 380 (protein, listed as Stylophorum diphyllum)
chain: MESLIDFSNPAKMEELMSNPWIITAITLAVVIIMMTIFRRKSSSMKWPKGPKTLPIIGNMHLFGGTDLHVVLYNIAKVYGNVMTIWIGSWRPVIVISDIERAWEVLVNKSSDYSARDMPEITKLISSDWKTISTSDAGAFWTNLRKGLQNVALSPHNLASQFQFQESDIKKLIETIKEEGAVNNGIVKPLDHLKKAMVRLISRLIFGQDFDNDKYVEGMHHAIEELIRVSGYARLAEAFYYAKYLPSHKKAVRDVEEANRRVQKLVRPFLSLNPPTNTYLHFLRSQNYSEEVIIFAIFEAYLLGVDSTSSTTAWALAFLIREPNVQEKLYQELKNFTVKNGRDMLKVEDINKLPYLQATIKETMRMKPIAPLAIPHKACRDTSLMGSKIDKGTRVMVNIYALHHNEKIWKEPFKFMPERFLQTEGEVNGKAMEQSFLPFSAGMRICAGMELGKLQFNFALANLVNAFKWSCVADGVLPDMSDQLGFVLVMKTPLEARITPRC
B2: EX96: CYP719 from Sanguinaria canadensis, SEQ ID NO: 375 (protein, listed as Sanguinaria canadensis)
chain: MEFEKIMMSNPWILAATTAVVFISITAIFFRRKSSSMEWPTGPKTLPIIGNMHLLGGTALHVVLHNFAKIYGNVMTIWIGSWRPVIVVSDIDRAWEVLVNKSSDYSARDMPEITKIISADWKTISTSDSGPFWTNLRKGLQNVALSPHNLAAQARFQERDISKMIETLKEEAALNNGIVKPLDHLKKATVRLISRLIYGQEFDNNKYVEDMHHAIEELIRVSGYARLAEAFYYAKYLPSHKKAVRDVEEANRRVKNLVRPFLSSNPPTNCYLHFLRTQNYPEEVIIFAIFEAYLLGVDSTSSTTAWALAFLVREPNVQEKLYQELKNFTTNNDRKMLKVEDINKLQYLQAVIKETMRMKPIAPLAIPHKACKETSLMGSKVDKGTRVMVNIYALHHNQKVWKEPYKFMPERFLETDNQDGNVGKAMEQSLLPFSAGMRICAGMELGKLQFTFSLANLVNAFKWSCVSDGVLPDMSDQLGFVLLMKNPLEARIVPRS

System: cheilanthifoline
Assay: CYP719 Ring A closure of cheilanthifoline to stylopine in GC1333
Assay type: cell-based, Saccharomyces cerevisiae
Experimental: FIG. 11A-B: showing conversion of (S)-cheilanthifoline (FIG. 11A) or (S)-nandinine (FIG. 11B) to (S)-stylopine by purchased CYP719s. Plasmids harboring CYP719s were transformed into GC1333 containing an integrated PsCPR. Strains were incubated with the appropriate BIA overnight, and then total BIAs were extracted and total molar ratios were compared. PsSPSΔN was used as a control.
The 10 CYP719s with 95% activity on Ring A of scoulerine and the 10 CYP719s with activity on Ring B of scoulerine were tested for activity on cheilanthifoline and nandinine, respectively, in order to generate a branched stylopine synthesis pathway. […] CYP719s PsCFS and EX101, capable of converting >98% of scoulerine to cheilanthifoline and nandinine, respectively, were incubated with scoulerine. After 16 h, cells were pelleted and the supernatant fraction was collected. The supernatant was then applied to fresh yeast strains in order to supplement them with either TE containing nandinine or cheilanthifoline as necessary.

Molecule | conversion of cheilanthifoline to stylopine
B1 | > 98%
B2 | > 98%
